B1: PTPRD (parent)
chain: ITWFKDFLPVDTSNNNGRIKQLRS
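Further: lentivirally expressed fusions sorted by FACS into six bins by GFP to DsRed ratio, PSI derived from sequencing read proportions per bin multiplied by bin number.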

The variants in the data set derive from B1. The data set can be described thus: protein stability index of a GFP-peptide fusion (GPS, HEK-293T) (PSI 1-6); higher = more stable. Particulars: c terminus: a fixed tail appended.
Consider ITWFKDFLPVDTFNNNGRIKQLRS [S13F], for which the protein stability index came out at 1.52.

In the case of ITWFKDFLPVDTMNNNGRIKQLRS [S13M], the protein stability index was determined as 2.17.

ITWFKDFLPVDTCNNNGRIKQLRS [S13C]: the protein stability index was determined as 1.54.

Take ITWFKDFLPVDTRNNNGRIKQLRS [S13R]: the protein stability index was 1.88.

Regarding ITWFKDFLPVDTYNNNGRIKQLRS [S13Y], the protein stability index is 2.05.

As to ITWFKDFLPVDTANNNGRIKQLRS [S13A], the protein stability index was found to be 1.62.

With ITWFKDFLPVDTTNNNGRIKQLRS [S13T], the protein stability index stood at 1.95.

In the case of ITWFKDFLPVDTNNNNGRIKQLRS [S13N], the protein stability index amounted to 1.68.

As for ITWFKDFLPVDTGNNNGRIKQLRS [S13G], the protein stability index is 1.77.

For the variant ITWFKDFLPVDTLNNNGRIKQLRS [S13L], the protein stability index was found to be 1.88.

On to ITWFKDFLPVDTDNNNGRIKQLRS [S13D], for which the protein stability index amounted to 2.22.

Regarding ITWFKDFLPVDTVNNNGRIKQLRS [S13V], the protein stability index was 2.38.

For ITWFKDFLPVDTENNNGRIKQLRS [S13E], the protein stability index amounted to 1.7.

In the case of ITWFKDFLPVDTHNNNGRIKQLRS [S13H], the protein stability index came out at 2.05.

For the variant ITWFKDFLPVDTPNNNGRIKQLRS [S13P], the protein stability index worked out at 2.34.

Turning to ITWFKDFLPVDTKNNNGRIKQLRS [S13K], the protein stability index was 1.77.

Regarding ITWFKDFLPVDTWNNNGRIKQLRS [S13W], the protein stability index was determined as 1.65.

For ITWFKDFLPVDTQNNNGRIKQLRS [S13Q], the protein stability index was found to be 1.85.

As for ITWFKDFLPVDTINNNGRIKQLRS [S13I], the protein stability index is 1.41.

Turning to ITWFKDFLPVSTSNNNGRIKQLRS [D11S], the protein stability index worked out at 2.06.

In the case of ITWFKDFLPVTTSNNNGRIKQLRS [D11T], the protein stability index is 1.61.

Consider ITWFKDFLPVVTSNNNGRIKQLRS [D11V], for which the protein stability index stood at 1.86.

Regarding ITWFKDFLPVCTSNNNGRIKQLRS [D11C], the protein stability index turned out to be 2.23.

Turning to ITWFKDFLPVNTSNNNGRIKQLRS [D11N], the protein stability index stood at 2.01.

As for ITWFKDFLPVGTSNNNGRIKQLRS [D11G], the protein stability index amounted to 1.99.

Turning to ITWFKDFLPVMTSNNNGRIKQLRS [D11M], the protein stability index is 2.16.

For ITWFKDFLPVATSNNNGRIKQLRS [D11A], the protein stability index amounted to 1.9.

Turning to ITWFKDFLPVHTSNNNGRIKQLRS [D11H], the protein stability index came to 1.73.

Consider ITWFKDFLPVFTSNNNGRIKQLRS [D11F], for which the protein stability index came to 1.9.

As for ITWFKDFLPVETSNNNGRIKQLRS [D11E], the protein stability index turned out to be 1.99.

For the variant ITWFKDFLPVITSNNNGRIKQLRS [D11I], the protein stability index was determined as 2.44.

Turning to ITWFKDFLPVWTSNNNGRIKQLRS [D11W], the protein stability index worked out at 2.33.

Turning to ITWFKDFLPVQTSNNNGRIKQLRS [D11Q], the protein stability index amounted to 1.84.

Turning to ITWFKDFLPVYTSNNNGRIKQLRS [D11Y], the protein stability index is 1.67.

As for ITWFKDFLPVLTSNNNGRIKQLRS [D11L], the protein stability index was 1.62.

For ITWFKDFLPVRTSNNNGRIKQLRS [D11R], the protein stability index amounted to 1.35.

Turning to ITWFKDFLPVPTSNNNGRIKQLRS [D11P], the protein stability index stood at 2.06.

Take ITWFKDFLPVKTSNNNGRIKQLRS [D11K]: the protein stability index was 1.71.

As for ITWFKDFLPVDSSNNNGRIKQLRS [T12S], the protein stability index turned out to be 1.94.

For ITWFKDFLPVDPSNNNGRIKQLRS [T12P], the protein stability index is 2.03.

In the case of ITWFKDFLPVDWSNNNGRIKQLRS [T12W], the protein stability index was found to be 1.84.

Consider ITWFKDFLPVDKSNNNGRIKQLRS [T12K], for which the protein stability index was found to be 2.01.

ITWFKDFLPVDMSNNNGRIKQLRS [T12M]: the protein stability index came out at 2.32.

As to ITWFKDFLPVDGSNNNGRIKQLRS [T12G], the protein stability index was determined as 1.83.

ITWFKDFLPVDISNNNGRIKQLRS [T12I]: the protein stability index came to 2.01.

As for ITWFKDFLPVDNSNNNGRIKQLRS [T12N], the protein stability index is 1.51.

ITWFKDFLPVDDSNNNGRIKQLRS [T12D]: the protein stability index came to 1.99.

Consider ITWFKDFLPVDHSNNNGRIKQLRS [T12H], for which the protein stability index was determined as 1.48.

For ITWFKDFLPVDYSNNNGRIKQLRS [T12Y], the protein stability index was found to be 1.55.

On to ITWFKDFLPVDESNNNGRIKQLRS [T12E], for which the protein stability index was 2.06.

As to ITWFKDFLPVDVSNNNGRIKQLRS [T12V], the protein stability index is 2.42.

ITWFKDFLPVDRSNNNGRIKQLRS [T12R]: the protein stability index turned out to be 1.9.

On to ITWFKDFLPVDASNNNGRIKQLRS [T12A], for which the protein stability index amounted to 1.98.

Take ITWFKDFLPVDCSNNNGRIKQLRS [T12C]: the protein stability index is 1.55.

Regarding ITWFKDFLPVDFSNNNGRIKQLRS [T12F], the protein stability index worked out at 1.65.

Take ITWFKDFLPVDQSNNNGRIKQLRS [T12Q]: the protein stability index worked out at 2.25.

As to ITWFKDFLPVDLSNNNGRIKQLRS [T12L], the protein stability index is 1.94.

For the variant ITWFKDFLPVDTSLNNGRIKQLRS [N14L], the protein stability index stood at 1.96.

As for ITWFKDFLPVDTSDNNGRIKQLRS [N14D], the protein stability index was found to be 1.66.

As for ITWFKDFLPVDTSTNNGRIKQLRS [N14T], the protein stability index stood at 1.76.

Consider ITWFKDFLPVDTSGNNGRIKQLRS [N14G], for which the protein stability index was 1.92.

As to ITWFKDFLPVDTSWNNGRIKQLRS [N14W], the protein stability index is 2.16.

For the variant ITWFKDFLPVDTSRNNGRIKQLRS [N14R], the protein stability index was 1.98.

Consider ITWFKDFLPVDTSYNNGRIKQLRS [N14Y], for which the protein stability index came to 1.51.

In the case of ITWFKDFLPVDTSVNNGRIKQLRS [N14V], the protein stability index was 1.76.

For the variant ITWFKDFLPVDTSMNNGRIKQLRS [N14M], the protein stability index was determined as 1.79.

Turning to ITWFKDFLPVDTSANNGRIKQLRS [N14A], the protein stability index amounted to 2.03.

Regarding ITWFKDFLPVDTSKNNGRIKQLRS [N14K], the protein stability index came out at 2.04.

As for ITWFKDFLPVDTSPNNGRIKQLRS [N14P], the protein stability index amounted to 2.37.

Turning to ITWFKDFLPVDTSSNNGRIKQLRS [N14S], the protein stability index was 2.94.

For ITWFKDFLPVDTSHNNGRIKQLRS [N14H], the protein stability index is 1.37.

Take ITWFKDFLPVDTSFNNGRIKQLRS [N14F]: the protein stability index stood at 1.5.

Turning to ITWFKDFLPVDTSENNGRIKQLRS [N14E], the protein stability index came to 2.05.

With ITWFKDFLPVDTSCNNGRIKQLRS [N14C], the protein stability index is 1.52.

Consider ITWFKDFLPVDTSINNGRIKQLRS [N14I], for which the protein stability index is 1.85.

Take ITWFKDFLPVDTSQNNGRIKQLRS [N14Q]: the protein stability index was 2.02.

For ITWFKDFLPVDTSNNNLRIKQLRS [G17L], the protein stability index was 1.73.

In the case of ITWFKDFLPVDTSNNNKRIKQLRS [G17K], the protein stability index is 2.86.

With ITWFKDFLPVDTSNNNHRIKQLRS [G17H], the protein stability index worked out at 1.37.

In the case of ITWFKDFLPVDTSNNNVRIKQLRS [G17V], the protein stability index was found to be 1.31.

In the case of ITWFKDFLPVDTSNNNMRIKQLRS [G17M], the protein stability index is 1.34.

ITWFKDFLPVDTSNNNYRIKQLRS [G17Y]: the protein stability index was found to be 1.78.

With ITWFKDFLPVDTSNNNWRIKQLRS [G17W], the protein stability index came to 2.63.

For ITWFKDFLPVDTSNNNPRIKQLRS [G17P], the protein stability index stood at 1.73.

Consider ITWFKDFLPVDTSNNNFRIKQLRS [G17F], for which the protein stability index came to 2.33.

In the case of ITWFKDFLPVDTSNNNARIKQLRS [G17A], the protein stability index stood at 1.58.

Turning to ITWFKDFLPVDTSNNNERIKQLRS [G17E], the protein stability index turned out to be 2.62.

Consider ITWFKDFLPVDTSNNNDRIKQLRS [G17D], for which the protein stability index is 2.09.

In the case of ITWFKDFLPVDTSNNNTRIKQLRS [G17T], the protein stability index turned out to be 2.25.

As to ITWFKDFLPVDTSNNNRRIKQLRS [G17R], the protein stability index is 1.5.

Regarding ITWFKDFLPVDTSNNNIRIKQLRS [G17I], the protein stability index came out at 1.53.

With ITWFKDFLPVDTSNNNSRIKQLRS [G17S], the protein stability index is 2.33.

For the variant ITWFKDFLPVDTSNNNQRIKQLRS [G17Q], the protein stability index worked out at 2.15.

As to ITWFKDFLPVDTSNNNCRIKQLRS [G17C], the protein stability index came out at 1.88.
